From patent publication US20180333477A1

Biological target: RSV line 19 F protein with I557V, as expressed by vaccine candidate OE4 (respiratory syncytial virus strain line 19) (UniProt P12568)
Experiment: MPE8 binding to virus stocks kept at 4 C over 8 days

## Pre-F-specific mAb MPE8 (antibody)
  pre-F antigen level (MPE8 binding) relative to A2: > 2 fold
